The Kd is the free concentration of one partner at which half of the binding sites on the other are occupied at equilibrium, for simple one-to-one binding.

These results are taken from article PMC11128890 (Frontiers in Cell and Developmental Biology, 2024).

Assay [1] addresses VEGFR2/KDR (Homo sapiens) (UniProt P35968). The note with it: cited from earlier work.
Assay [2] has as its target KDR domain 1 (D1) fused to GST. The assay can be described thus: ELISA-type binding assay. Particulars: GST-KDR-D1 100 μg/mL, read off a plot. (In general: ELISA stands for enzyme-linked immunosorbent assay.)
The target of assay [3] is T1, KDR domain 1 (D1) fused to GST.
T1 chain: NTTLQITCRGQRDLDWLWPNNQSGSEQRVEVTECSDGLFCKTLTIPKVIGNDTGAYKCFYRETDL
The assay can be described thus: ELISA-type binding assay. Particulars: chain shown with the change, read off a plot.

Assay [4] addresses T2, recombinant soluble integrin αvβ3 (UniProt P06756 31-987; P05106 27-718).
T2 construct: integrin αv subunit, soluble expression construct; integrin β3 subunit, soluble expression construct; PDB 1L5G is the αvβ3 structure used for docking, not necessarily the same limits; also called soluble αvβ3; source: CHO K1 cells, soluble αv and β3 expression constructs, purified (Ni-NTA)
The assay can be described thus: ELISA; HBD, NTD or HBD mutants coated on 96-well plates, blocked with BSA; soluble αvβ3 (1 μg/mL) in HEPES-Tyrode buffer + 1 mM MnCl2, 1 h room temperature; bound αvβ3 detected with anti-β3 mAb AV10; binding to HBD inhibited by mAb 7E3 and cation-dependent. The note with it: both partners purified.

The target of assay [5] is T3, KDR domain 1 (D1), His-tagged.
T3 chain: T1 chain
The assay can be described thus: SPR. On the technique in general: In SPR one partner is held on a chip, and binding of the other changes the refractive index at the surface.

Assay [6] deals with T4, KDR domain 1 (D1), His-tagged.
T4 construct: first IgG-like domain (D1) of VEGFR2/KDR, amplified from full-length KDR cDNA; Cloned into the BamHI/EcoRI site of pET28a; also called KDR D1; KDR D1 (His-tagged)
T4 chain: T1 chain
The assay can be described thus: SPR; KDR D1 (His-tagged) immobilised on CM5 chip by amine coupling; HBD injected at 50 μL/min for 1.8 min; HBS-EP buffer (0.01 M HEPES pH 7.4, 0.15 M NaCl, 3 mM EDTA, 0.0005% P20). The note with it: both partners purified.

Assay [7] addresses T2, recombinant soluble integrin αvβ3. The assay can be described thus: SPR; soluble αvβ3 (His-tagged) immobilised on CM5 chip by amine coupling; HBD injected at 50 μL/min for 1.8 min; HBS-P buffer (0.01 M HEPES pH 7.4, 0.15 M NaCl, 0.0005% P20) with 1 mM Mn2+. The note with it: both partners purified.
Where [8] appears, read: HBD at 10 µg/ml, parent: est. 0.93.
Setting [9] is: HBD coated at 20 µg/ml (highest point of the curve), parent: est. 1.4.
Where [10] appears, read: GST-KDR-D1 100 μg/mL, parent: est. 0.51.

T2 sequence (P06756 31-987, chain 1 of 2): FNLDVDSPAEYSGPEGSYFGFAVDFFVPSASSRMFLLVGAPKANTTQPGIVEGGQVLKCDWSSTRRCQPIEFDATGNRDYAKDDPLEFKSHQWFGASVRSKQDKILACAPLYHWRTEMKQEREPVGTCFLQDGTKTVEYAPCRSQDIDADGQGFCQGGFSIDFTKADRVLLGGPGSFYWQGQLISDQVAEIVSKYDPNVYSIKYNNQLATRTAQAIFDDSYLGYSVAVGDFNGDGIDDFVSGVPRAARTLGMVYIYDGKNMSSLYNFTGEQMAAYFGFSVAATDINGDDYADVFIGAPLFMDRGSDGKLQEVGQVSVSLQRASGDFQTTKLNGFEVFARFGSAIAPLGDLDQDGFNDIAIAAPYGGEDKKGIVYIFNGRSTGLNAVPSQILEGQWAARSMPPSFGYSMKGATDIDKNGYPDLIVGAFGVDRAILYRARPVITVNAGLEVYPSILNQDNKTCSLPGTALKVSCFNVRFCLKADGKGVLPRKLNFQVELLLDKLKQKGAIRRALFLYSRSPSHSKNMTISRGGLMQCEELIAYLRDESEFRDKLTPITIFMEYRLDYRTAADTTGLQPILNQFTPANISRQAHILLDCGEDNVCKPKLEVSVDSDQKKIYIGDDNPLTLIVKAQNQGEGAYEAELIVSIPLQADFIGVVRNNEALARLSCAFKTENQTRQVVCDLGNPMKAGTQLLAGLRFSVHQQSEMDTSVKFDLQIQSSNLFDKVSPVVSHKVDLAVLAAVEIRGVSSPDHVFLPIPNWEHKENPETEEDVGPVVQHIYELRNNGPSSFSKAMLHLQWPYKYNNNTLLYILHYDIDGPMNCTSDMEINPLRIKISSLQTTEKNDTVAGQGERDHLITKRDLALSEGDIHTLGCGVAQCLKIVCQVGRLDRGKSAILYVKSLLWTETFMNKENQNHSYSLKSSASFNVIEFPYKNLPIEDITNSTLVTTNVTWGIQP
T2 sequence (P05106 27-718, chain 2 of 2): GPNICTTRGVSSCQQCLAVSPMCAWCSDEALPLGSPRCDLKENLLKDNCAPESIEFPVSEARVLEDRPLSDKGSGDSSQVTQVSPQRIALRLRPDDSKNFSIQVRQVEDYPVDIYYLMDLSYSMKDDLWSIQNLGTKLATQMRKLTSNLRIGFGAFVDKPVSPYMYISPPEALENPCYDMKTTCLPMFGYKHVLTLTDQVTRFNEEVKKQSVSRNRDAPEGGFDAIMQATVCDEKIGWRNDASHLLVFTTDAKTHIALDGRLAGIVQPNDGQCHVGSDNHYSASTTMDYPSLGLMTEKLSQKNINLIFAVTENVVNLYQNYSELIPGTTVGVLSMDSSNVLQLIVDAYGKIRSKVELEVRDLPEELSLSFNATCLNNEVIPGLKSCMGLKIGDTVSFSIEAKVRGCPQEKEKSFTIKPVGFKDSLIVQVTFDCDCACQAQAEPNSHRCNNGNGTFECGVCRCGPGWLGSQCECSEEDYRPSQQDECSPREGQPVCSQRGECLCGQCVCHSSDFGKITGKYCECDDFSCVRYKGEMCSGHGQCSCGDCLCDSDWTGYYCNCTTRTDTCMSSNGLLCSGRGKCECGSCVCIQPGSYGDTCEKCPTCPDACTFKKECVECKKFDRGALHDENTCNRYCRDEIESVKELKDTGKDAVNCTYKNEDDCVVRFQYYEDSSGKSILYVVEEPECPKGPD
VEGFR2/KDR (Homo sapiens), sequence (P35968 20-1356): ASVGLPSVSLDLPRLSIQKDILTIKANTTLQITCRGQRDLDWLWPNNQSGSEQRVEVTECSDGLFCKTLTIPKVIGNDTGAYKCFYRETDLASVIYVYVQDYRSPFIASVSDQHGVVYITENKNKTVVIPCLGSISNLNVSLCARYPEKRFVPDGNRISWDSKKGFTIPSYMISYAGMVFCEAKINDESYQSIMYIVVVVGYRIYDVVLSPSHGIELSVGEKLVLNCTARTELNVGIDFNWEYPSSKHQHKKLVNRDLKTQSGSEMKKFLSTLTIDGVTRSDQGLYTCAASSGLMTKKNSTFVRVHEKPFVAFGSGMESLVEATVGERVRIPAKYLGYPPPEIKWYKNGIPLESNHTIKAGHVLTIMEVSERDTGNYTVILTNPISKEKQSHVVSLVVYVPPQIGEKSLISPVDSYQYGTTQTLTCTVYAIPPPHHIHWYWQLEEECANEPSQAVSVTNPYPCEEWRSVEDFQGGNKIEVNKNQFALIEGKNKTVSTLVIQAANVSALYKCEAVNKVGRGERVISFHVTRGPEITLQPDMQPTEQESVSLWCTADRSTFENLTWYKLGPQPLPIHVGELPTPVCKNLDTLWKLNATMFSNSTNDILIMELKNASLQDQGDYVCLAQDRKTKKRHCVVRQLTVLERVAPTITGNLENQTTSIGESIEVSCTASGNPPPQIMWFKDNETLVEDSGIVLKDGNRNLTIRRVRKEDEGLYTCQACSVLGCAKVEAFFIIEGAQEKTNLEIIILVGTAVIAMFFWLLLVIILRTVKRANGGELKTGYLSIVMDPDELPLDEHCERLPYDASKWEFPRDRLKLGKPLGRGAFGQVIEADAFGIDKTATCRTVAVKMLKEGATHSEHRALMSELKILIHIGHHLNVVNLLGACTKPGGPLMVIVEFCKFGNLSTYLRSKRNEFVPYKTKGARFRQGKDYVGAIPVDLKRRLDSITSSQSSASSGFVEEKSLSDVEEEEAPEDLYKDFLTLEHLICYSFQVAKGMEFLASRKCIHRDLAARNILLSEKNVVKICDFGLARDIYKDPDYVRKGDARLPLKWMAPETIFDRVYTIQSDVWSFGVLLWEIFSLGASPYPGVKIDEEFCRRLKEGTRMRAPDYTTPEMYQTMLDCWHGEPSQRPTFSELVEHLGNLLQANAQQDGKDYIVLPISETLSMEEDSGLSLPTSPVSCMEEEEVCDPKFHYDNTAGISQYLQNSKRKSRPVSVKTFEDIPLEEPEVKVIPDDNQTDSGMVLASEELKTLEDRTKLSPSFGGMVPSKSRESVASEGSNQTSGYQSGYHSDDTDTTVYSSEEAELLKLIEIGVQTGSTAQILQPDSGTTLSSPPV

VEGF165 (from UniProt P15692): in assay [1], the Kd was 0.14 nM.

For the molecule “VEGF165 heparin-binding domain (HBD), wild type K140E”, the response was determined as 0.73 OD450 in assay [2] (setting [8]) and 0.89 OD450 in assay [2] (setting [9]).

On to “VEGF165 heparin-binding domain (HBD), wild type K136E”, for which the response in assay [2] (setting [8]) was 1 OD450.

Consider “VEGF165 heparin-binding domain (HBD), wild type K145E”, for which the response in assay [2] (setting [8]) amounted to 0.74 OD450; in assay [2] (setting [9]), 1.1 OD450.

As for PCGPCSERREHLFVQDPQTCKCSCKNTDSRCKARQLELNERTCRCDKPRR [VEGF165 heparin-binding domain (HBD), wild type K125E], in assay [3] (setting [10]), the response was 0.31 OD450.

PCGPCSEAAAHLFVQDPQTCKCSCKNTDSRCKARQLELNERTCRCDKPRR (domain or fragment, human, the substitutions are to be applied) [VEGF165 HBD R123A/R124A/K125A mutant]: the binding result in assay [4] is on record as “binds”.

As for PCGPCSERRKHLFVQDPQTCKCSCANTDSACKAAQLELNERTCRCDKPRR (domain or fragment, human, the substitutions are to be applied) [VEGF165 HBD K140A/R145A/R149A mutant], the binding result in assay [4] is “binds”.

Consider PCGPCSEAAAHLFVQDPQTCKCSCANTDSACKAAQLELNERTCRCDKPRR [VEGF165 heparin-binding domain (HBD), wild type R123A; R124A; K125A; K140A; R145A; R149A], for which the response in assay [3] (left graph (dose-response), HBD coated at 10 µg/ml, soluble GST-tagged KDR fragment 100 μg/mL, parent: est. 0.77) came out at 0.1 OD450; in assay [3] (left graph (dose-response), HBD coated at 20 µg/ml, soluble GST-tagged KDR fragment 100 μg/mL, parent: est. 1.2), 0.16 OD450; in assay [3] (right graph (bar chart), 20 µg/ml, n=3, soluble GST-tagged KDR fragment 100 μg/mL, parent: est. 1.4), 0.13 OD450.

Consider PCGPCSEERKHLFVQDPQTCKCSCKNTDSRCKARQLELNERTCRCDKPRR [VEGF165 heparin-binding domain (HBD), wild type R123E], for which the response in assay [3] (setting [10]) came to 0.14 OD450.

For PCGPCSEEEEHLFVQDPQTCKCSCKNTDSRCKARQLELNERTCRCDKPRR [VEGF165 heparin-binding domain (HBD), wild type R123E; R124E; K125E], the response in assay [3] (setting [10]) amounted to 0.06 OD450; in assay [3] (HBD at 10 µg/ml, GST-KDR-D1 100 μg/mL, parent: est. 0.93) it was 0.14 OD450; in assay [3] (HBD coated at 20 µg/ml (highest point of the curve), GST-KDR-D1 100 μg/mL, parent: est. 1.4), 0.16 OD450.

As to PCGPCSEREKHLFVQDPQTCKCSCKNTDSRCKARQLELNERTCRCDKPRR [VEGF165 heparin-binding domain (HBD), wild type R124E], the response in assay [3] (setting [10]) is 0.2 OD450.

B1: VEGF165 heparin-binding domain (HBD), wild type (domain or fragment, human)
chain: PCGPCSERRKHLFVQDPQTCKCSCKNTDSRCKARQLELNERTCRCDKPRR
notes: Cloned into the BamHI/EcoRI site of pET28a; PDB 2VGH is the HBD structure used for docking; also called VEGF165-HBD; VEGF165 HBD
For B1, the values for the Kd in assay [5], in assay [6] and in assay [7] were 109 nM, ~100 nM and 470 nM, respectively.
